From patent publication US20200165343A1 (Dana-Farber, published 2020) come the findings set out here.

For assay [1], the target named is MICA extracellular domain (α1-α3 domains), allele not stated (human) (UniProt Q29983). The assay can be described thus: fluorescence ELISA (DELFIA): immobilized MICA extracellular domain, antibody titrated, biotinylated anti-mouse IgG + Europium-streptavidin. (In general: ELISA stands for enzyme-linked immunosorbent assay.)
Assay [2] deals with T1, MICA extracellular domain (α1-α3 domains), allele not stated (human, UniProt Q29983 24-307).
T1 construct: extracellular domain; also called MICA α1-α3 domains; full-length extracellular domain
T1 sequence (looked up): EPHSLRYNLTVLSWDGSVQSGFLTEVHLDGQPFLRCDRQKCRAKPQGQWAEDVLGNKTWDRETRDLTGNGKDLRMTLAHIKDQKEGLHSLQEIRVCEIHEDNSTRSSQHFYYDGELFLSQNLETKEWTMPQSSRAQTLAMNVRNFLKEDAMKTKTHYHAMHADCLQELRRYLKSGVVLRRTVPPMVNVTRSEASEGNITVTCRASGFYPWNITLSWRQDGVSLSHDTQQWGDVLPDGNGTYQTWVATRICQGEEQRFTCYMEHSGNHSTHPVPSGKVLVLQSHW
Described as above.

“mAb 6D4 (anti-MICA/B antibody, clone 6D4, Biolegend; specific for the MICA α1-α2 domains)”: in assay [1], the concentration for a half-maximal effect (EC50) amounted to 1 µg/mL.

B1: mAb 7C6 (parental murine IgG2b monoclonal antibody specific for the MICA/B α3 domain) (antibody, V domains shown)
VH: QIQLVQSGPELKKPGETVKVSCKASGYMFTNYAMNWVKQAPEKGLKWMGWINTHTGDPTYADDFKGRIAFSLETSASTAYLQINNLKNEDTATYFCVRTYGNYAMDYWGQGTSVTVSS
VL: DIQMTQTTSSLSASLGDRVTISCSASQDISNYLNWYQQKPDGTVKLLIYDTSILHLGVPSRFSGSGSGTDYSLTISNLEPEDIATYYCQQYSKFPRTFGGGTTLEIK
notes: Mouse hybridoma antibody; also called 7C6 mAb; 7C6-mIgG2b
On to B1, for which, in assay [2], the EC50 came out at 1 µg/mL.

Broadly, the EC50 is the concentration needed to bring the measured effect to its halfway point.
